The values below come from patent US11827701B2, “IL-6 binding molecules” (argenx BV, priority 2012, dated 2023).

What all share (format): binding
The target of experiment [1] is T1, eukaryotically produced human IL-6 (Homo sapiens, UniProt P05231).
T1 construct: purchased Humanzyme HZ-1044; host or cells: Human Embryonic kidney cells
The experiment is described as follows: Surface plasmon resonance (Biacore), eukaryotically produced human IL-6 coated on CM5 chip. Conditions: for KA / ka / kd: euk, periplasmic fractions; for Koff eukIL-6: purified chain-shuffled Fabs. As to the method: (§1) The binding kinetics of IL-6-specific Fabs that were able to cross-compete with the B-E8 antibody was assessed using surface plasmon resonance (Biacore). Specifically, biotinylated (prokaryotic) IL-6 was captured on a streptavidin biacore sensor chip (CM5-SA) and different concentrations of purified Fabs were injected during 3 minutes following by a 5 minute wash with buffer. From the washing phase the off-rate (kd) was determined, while from the injection phase the on-rate (ka) was calculated using the concentration and off-rate as parameters. […] The binding kinetics of antagonistic purified Fabs (Table 3) and periplasmic fractions of Fab-expressing bacteria (Table 4) were also evaluated by surface plasmon resonance (Biacore) using both bacterially and eukaryotically produced human IL-6 directly coated on a CM5 chip. The Fabs tested had off-rates between 6×10^−4 and 2×10^−5 s^−1.
(§2) VL chain shuffling was used to improve the affinity of the Fabs 17F10, 18C7, 18C9, 18C11, 20A4, 29B11, 16D2 and 28A6. In this method, the heavy chain of these clones (as a VHCH1 fragment) was reintroduced into the primary phagemid-light chain library (see Example 1). Affinity selections were performed to select for chain shuffled Fabs with an improved affinity for IL-6. The binding kinetics of chain shuffled Fabs were evaluated by surface plasmon resonance (Biacore) using both bacterially and eukaryotically produced human IL-6, and cynomolgus monkey IL-6 (Tables 5-7). The VH and VL amino acid sequences of exemplary IL-6-specific Fabs selected by the VL chain shuffling method are set forth in Table 14 below.
(§3) VH chain shuffling was also used to improve the affinity of the Fab 24D10. In this method, the light chain of 24D10 was reintroduced into the primary phagemid-heavy chain library (see Example 1) and selected using an off-rate assay. In this type of selection, the phage were allowed to bind to antigen on a substrate for 1.5 to 2 hours. At round 2, after 15 washes with PBS-Tween, an additional wash was performed with the presence of excess soluble IL-6. […] This procedure avoids re-binding of such phage to the coated target. […] The binding kinetics of chain shuffled Fabs and the benchmark antibodies, BE8 and GL18, were evaluated by surface plasmon resonance (Biacore) using both bacterially and eukaryotically produced human IL-6 (Tables 8 and 9). The VH and VL amino acid sequences of exemplary IL-6-specific Fabs selected by the VH chain shuffling method are set forth in Table 14 below. […]
For orientation: In SPR one partner is held on a chip, and binding of the other changes the refractive index at the surface.

Experiment [2] addresses T2, bacterially produced human IL-6 (Homo sapiens, UniProt P05231).
T2 construct: His
The experiment is described as follows: Surface plasmon resonance (Biacore), bacterially produced human IL-6 coated on CM5 chip. Conditions: for KA / ka / kd: bact, periplasmic fractions. As to the method: as §1, §2, §3

The target of the next experiment is T3, cynomolgus monkey IL-6 (Macaca fascicularis, UniProt P79341).
T3 construct: His
T3 sequence (P79341 28-212): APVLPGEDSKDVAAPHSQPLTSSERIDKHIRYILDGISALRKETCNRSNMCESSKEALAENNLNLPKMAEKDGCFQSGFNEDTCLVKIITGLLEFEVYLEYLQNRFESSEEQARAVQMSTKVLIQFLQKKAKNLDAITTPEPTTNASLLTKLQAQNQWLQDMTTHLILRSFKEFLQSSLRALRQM
The experiment is described as follows: Surface plasmon resonance (Biacore), cynomolgus monkey IL-6. Conditions: for KA / ka / kd: cy/cyno, periplasmic fractions; for Koff HIS-cyIL-6: purified chain-shuffled Fabs. As to the method: as §2

T2 sequence (P05231 30-212): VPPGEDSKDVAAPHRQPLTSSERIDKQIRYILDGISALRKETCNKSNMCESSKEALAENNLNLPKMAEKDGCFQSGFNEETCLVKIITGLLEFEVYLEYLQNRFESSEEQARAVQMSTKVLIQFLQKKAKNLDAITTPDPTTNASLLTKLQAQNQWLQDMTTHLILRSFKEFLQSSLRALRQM
T1 sequence (P05231 30-212): as above

B1: 55C1a: 29B11 chain shuffled Fab, periplasmic fraction (antibody, V domains shown)
VH: EVQLVESGGGLVQPGGSLRLSCAASGFTFSSYAMSWVRQAPGKGLEWVSRISSGGISTYYADSVKGRFTISRDNAKNTLYLQMNSLKPEDTAVYYCVRYAWGVQWAFDFWGQGTQVTVSS
VL: ALNFMLTQPPSVSGSPGKTVTISCAGTSSDVGYGNYVSWYQQLPGTAPKLLIYNVNKRASGITDRFSGSKSGNTASLTISGLQSEDEADYYCASYRTGDNAAFGGGTKLTVLG
Take B1: in experiment [1] (29B11 chain shuffled), the KA came out at 5.55e+09 M⁻¹, the ka stood at 440000 M⁻¹ s⁻¹ and the kd was found to be 7.93e-05 s⁻¹. In experiment [2] (29B11 chain shuffled), this molecule returned a KA of 7.6e+09 M⁻¹, a ka of 561000 M⁻¹ s⁻¹ and a kd of 7.38e-05 s⁻¹. Also, in the experiment with cynomolgus monkey IL-6 (29B11 chain shuffled), the KA stood at 1.25e+09 M⁻¹, the ka was found to be 475000 M⁻¹ s⁻¹ and the kd was determined as 0.000381 s⁻¹.

B2: 55E2b: 29B11 chain shuffled Fab, periplasmic fraction (antibody, V domains shown)
VH: EVQLVESGGGLVQPGGSLRLSCAASGFTFSSYAMSWVRQAPGKGLEWVSRISSGGISTYYADSVKGRFTISRDNAKNTLYLQMNSLKPEDTAVYYCVRYAWGVQWAFDFWGQGTQVTVSS
VL: AQSVLTQPPSVSGSPGKTVTISCAGTSSDVGYGNYVSWYQQLPGMAPKLLIYDVNKRASGIADRFSGSKFANTASLTISGLQSEDEADYYCASYKRGDNAVFGGGTKLTVLG
On to B2, for which, in experiment [1] (29B11 chain shuffled), the KA is 6.34e+09 M⁻¹, the ka came to 414000 M⁻¹ s⁻¹ and the kd came out at 6.53e-05 s⁻¹. Moreover, in experiment [2] (29B11 chain shuffled), the KA came out at 7.28e+09 M⁻¹, the ka amounted to 489000 M⁻¹ s⁻¹ and the kd was 6.72e-05 s⁻¹. In the experiment with cynomolgus monkey IL-6 (29B11 chain shuffled), this molecule came in with a KA of 1.39e+09 M⁻¹, a ka of 468000 M⁻¹ s⁻¹ and a kd of 0.000336 s⁻¹.

B3: 47C2 (R4): 29B11 chain shuffled Fab, periplasmic fraction (antibody, listed as Lama glama, V domains shown)
VH: EVQLVESGGGLVQPGGSLRLSCAASGFTFSSYAMSWVRQAPGKGLEWVSRISSGGISTYYADSVKGRFTISRDNAKNTLYLQMNSLKPEDTAVYYCVRYAWGVQWAFDFWGQGTQVTVSS
VL: ALSYDLTQPPSVSGSPGKTVTISCAGTSSDVGYGNYVSWYQQLPGMAPKILIYDVNKRASGIADRFSGSKSGNTASLTISGLQSEDEADYYCASYRRGETIVFGGGTHLTVLG
As for B3, in experiment [1] (29B11 chain shuffled), the KA is 3.54e+09 M⁻¹, the ka came out at 849000 M⁻¹ s⁻¹ and the kd turned out to be 0.00024 s⁻¹. In addition, in experiment [2] (29B11 chain shuffled), the KA is 3.56e+09 M⁻¹, the ka amounted to 1.12e+06 M⁻¹ s⁻¹ and the kd is 0.000315 s⁻¹. In addition, in the experiment with cynomolgus monkey IL-6 (29B11 chain shuffled), the KA is 6.48e+08 M⁻¹, the ka was 851000 M⁻¹ s⁻¹ and the kd amounted to 0.00131 s⁻¹.

B4: 48C10: 29B11 chain shuffled Fab, periplasmic fraction (antibody, listed as Lama glama, V domains shown)
VH: EVQLVESGGGLVQPGGSLRLSCAASGFTFSSYAMSWVRQAPGKGLEWVSRISSGGISTYYADSVKGRFTISRDNAKNTLYLQMNSLKPEDTAVYYCVRYAWGVQWAFDFWGQGTQVTVSS
VL: AQSVLTQPPSVSGSPGQTVTISCAGTSEDVGYGNYVSWYQQLPGMAPKLLIYDVNKRASGIADRFSGSKSGNTASLTISGLQSEDEADYYCASYRRTIDNIFGGGTHLTVLG
In experiment [2] (29B11 chain shuffled), B4 returned a KA of 1.43e+09 M⁻¹, a ka of 262000 M⁻¹ s⁻¹ and a kd of 0.000184 s⁻¹. In the experiment with cynomolgus monkey IL-6 (29B11 chain shuffled), this molecule displayed a KA of 4.1e+08 M⁻¹, a ka of 180000 M⁻¹ s⁻¹ and a kd of 0.00044 s⁻¹.

B5: 41B5: light chain shuffled Fab of parental 17F10 (antibody, V domains shown)
VH: EVQLQESGPGLVKPSQTLSLTCTVSGGSIATSYYAWSWIRQPPGKGLEWMGVIDYDGDTYYKPSLKSRTSISRDTSKNQFSLQLSSVTPEDTAVYYCARAGLGDSYYLGTYYAMDYWGKGTLVTVSS
VL: QSALTQPPSMSGTLGKTLTISCNGTSSDIGSGDYVSWYQQLPGTTPKLLIEGVTTRASGIPDRFSASKSDNTASLTISGLQSEDEATYYCASYRETNNVVFGGGTHLTVLS
Turning to B5, in experiment [1], the “Koff eukIL-6” value is 0.0002 s⁻¹. Further, the “Koff HIS-cyIL-6” value in the experiment with cynomolgus monkey IL-6 came out at 0.00017 s⁻¹.

B6: 17F10: antagonistic IL-6-specific Fab clone from immunized llama (antibody, listed as Lama glama, V domains shown)
VH: EVQLQESGPGLVKPSQTLSLTCTVSGGSIATSYYAWSWIRQPPGKGLEWMGVIDYDGDTYYKPSLKSRTSISRDTSKNQFSLQLSSVTPEDTAVYYCARAGLGDSYYLGTYYAMDYWGKGTLVTVSS
VL: QAGLTQPPSVSGSPGKTVTISCAGTTSDVGTGNFVSWYQQLPGMAPKLLIYDVNKRASGIADRFSGSKSGNTASLTISGLQSEDEADYYCASYRSLNNVVFGGGTHLTVLG
Take B6: the “Koff eukIL-6” value in experiment [1] is 0.00077 s⁻¹. Also, the “Koff HIS-huIL-6” value in experiment [2] (purified chain-shuffled Fabs) amounted to 0.00088 s⁻¹. For the same molecule, the “Koff HIS-cyIL-6” value with cynomolgus monkey IL-6 was determined as 0.00078 s⁻¹.

B7: 55A11d: 28A6 chain-shuffled Fab, periplasmic fraction (antibody, V domains shown)
VH: QVQLVESGGGLVQPGGSLRLSCAASGFTFSNYYMTWVRQAPGKGLEWVSSIYSFSGDTAYADSVKGRFTISRDNAKNTLYLQMNSLKSEDTAVYYCTRNLGGVVVTTNGYDYWGQGTQVTVSS
VL: DIQMTQSPSSLPTSLGDSVTITCQASQSISDELSWYQQKPGQTPKLLIYGASRLQTGVPSRFSGRGSGTSFTLTISGLEAEDLATYYCLQGYSWPFMFGQGTKVELK
Turning to B7, the KA in experiment [1] (28A6 chain-shuffled) amounted to 1.59e+09 M⁻¹; in experiment [2] (28A6 chain-shuffled), 2.78e+09 M⁻¹; in the experiment with cynomolgus monkey IL-6 (28A6 chain-shuffled) it was 1.77e+09 M⁻¹. In addition, the ka in experiment [1] (28A6 chain-shuffled) amounted to 101000 M⁻¹ s⁻¹; in experiment [2] (28A6 chain-shuffled), 188000 M⁻¹ s⁻¹; in the experiment with cynomolgus monkey IL-6 (28A6 chain-shuffled) it was 144000 M⁻¹ s⁻¹. The results for the kd (in experiment [1] (28A6 chain-shuffled); in experiment [2] (28A6 chain-shuffled); with cynomolgus monkey IL-6 (28A6 chain-shuffled)) were 6.36e-05 s⁻¹, 6.76e-05 s⁻¹ and 8.17e-05 s⁻¹, respectively.

B8: 55E10g1: 28A6 chain-shuffled Fab, periplasmic fraction (antibody, V domains shown)
VH: QVQLVESGGGLVQPGGSLRLSCAASGFTFSNYYMTWVRQAPGKGLEWVSSIYSFSGDTAYADSVKGRFTISRDNAKNTLYLQMNSLKSEDTAVYYCTRNLGGVVVTTNGYDYWGQGTQVTVSS
VL: DIQMTQSPSSLPTSLGDSVTITCQASQSISDELSWYQQKPGQTPKLLIYGASKLQTGVPSRFSGSGSGTSFTLTISGLEAEDLATYYCLQGYSWPFMFGQGTKVELK
Consider B8, for which the figures for the KA (in experiment [1] (28A6 chain-shuffled); in experiment [2] (28A6 chain-shuffled); with cynomolgus monkey IL-6 (28A6 chain-shuffled)) were 2.62e+09 M⁻¹, 3.18e+09 M⁻¹ and 2.1e+09 M⁻¹, respectively. Further, the ka in experiment [1] (28A6 chain-shuffled) amounted to 146000 M⁻¹ s⁻¹; in experiment [2] (28A6 chain-shuffled), 193000 M⁻¹ s⁻¹; with cynomolgus monkey IL-6 (28A6 chain-shuffled), 145000 M⁻¹ s⁻¹. Moreover, the kd in experiment [1] (28A6 chain-shuffled) was 5.59e-05 s⁻¹; in experiment [2] (28A6 chain-shuffled) it was 6.09e-05 s⁻¹; with cynomolgus monkey IL-6 (28A6 chain-shuffled), 6.88e-05 s⁻¹.

B9: 55C11f: 28A6 chain-shuffled Fab, periplasmic fraction (antibody, V domains shown)
VH: QVQLVESGGGLVQPGGSLRLSCAASGFTFSNYYMTWVRQAPGKGLEWVSSIYSFSGDTAYADSVKGRFTISRDNAKNTLYLQMNSLKSEDTAVYYCTRNLGGVVVTTNGYDYWGQGTQVTVSS
VL: DIQLTQSPSSLSASLGDSVTITCQASQSISDELSWYQQKPGQTPKLLIYGASKLQTGVPSRFSGSGSGTSFTLTISGLEAEDLATYYCLQGYRWPFMFGQGTKVELK
For B9, in experiment [1] (28A6 chain-shuffled), the KA was determined as 3.1e+09 M⁻¹, the ka came out at 201000 M⁻¹ s⁻¹ and the kd turned out to be 6.47e-05 s⁻¹. Further, in experiment [2] (28A6 chain-shuffled), the KA amounted to 3.29e+09 M⁻¹, the ka was determined as 228000 M⁻¹ s⁻¹ and the kd stood at 6.94e-05 s⁻¹. In addition, in the experiment with cynomolgus monkey IL-6 (28A6 chain-shuffled), the KA is 3.2e+09 M⁻¹, the ka was 285000 M⁻¹ s⁻¹ and the kd was 8.9e-05 s⁻¹.
